Results published in patent US20070071744A1 (published 2007).
Ends that are not written are not given here.

Key:
Test in all cases: PepSpot peptide array
[1] = target: T1, peptide 57 (human)
T1 peptide: Ac-KPSLSAQPGPAVS
Summary of the method: (§1)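 Peptides synthesized on cellulose membranes were blocked, then probed with a primary antibody followed by an HRP-labelled secondary, or with an HRP-labelled primary alone. After T-TBS/TBS washes, chemiluminescence was recorded as light units per peptide as single measurements. A secondary-only incubation served as the non-specific binding control.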

[2] = target: T2, peptide 24 (human)
T2 peptide: Ac-RCQGPPGVDLYRL
Summary of the method: as §1

[3] = target: T3, peptide 100 (human)
T3 peptide: Ac-ELVVTGTSVTPSR
Summary of the method: as §1

[4] = target: T4, peptide 52 (human)
T4 peptide: Ac-LELVATGVFAKPS
Summary of the method: as §1

[5] = target: T5, peptide 85 (human)
T5 peptide: Ac-TVTAAHSGTYRCY
Summary of the method: as §1

LU (Light Units) [1]: 128 LU
LU (Light Units) [2]: 28 LU
LU (Light Units) [3]: 114 LU
LU (Light Units) [4]: 148 LU
LU (Light Units) [5]: 14 LU
B1: monoclonal antibody hGP 5C4 (antibody, V domains shown)
VH: EVKLQESGGGLVQPGRSLKLSCTASGFTFSDYFMSWVRQAPTRGLEWVASISSGGASAYWRDSVKGRFTISRDNAKSALYLQMDSLRSEDTATYFCARGELDFDYWGQGVMVAVSS
VL: ADPNSTLLSASVGDRVTLNCTASQNVYKNLAWYQQKLGEAPRLLLYSANSQTGIPSRFSGSGSGPDFTLTISSLQPEDVASYFCQQYYSGNTFGAGTKLELKR
notes: Rat hybridoma antibody (Lou/C rats), heavy chain gamma 2a, light chain kappa; also called ab 5C4; anti-GPVI mAb 5C4
